Assay: label from the status in PepcDB records

Row | Sequence | protein production
1 | MVNPTISDDLFAMIAKKVADKSWLDLKPLIRSGTRGRDIVYRPDVLKDANIYSLCRVPDDFQVGGGHNPTGPQGEGRNRPFFKRCLLANNPTAVYNEAIRVLIHETDINGALKLMQRHAPVRADATIVCAIIFICAGYEWN | not failed
2 | MKVYIETMGCAMNSRDSEHLLSELSKLDYKETNDPKTADLILINTCSVREKPERKLFSEIGQFAKIKKPNAKIGVCGCTASHMGADILKKAPSVSFVLGARNVSKISQVIHKEKAVEVAIDYDESAYAFEFFEKKAQIRSLLNISIGCDKKCAYCIVPHTRGKEISIPMDLILKEAEKLANNGTKELMLLGQNVNNYGARFSSEHAKVDFSDLLDKLSEIQGIERIRFTSPHPLHMNDGFLERFAKNPKVCKSIHMPLQSGSSAVLKMMRRGYSKEWFLNRVERLKALVPEVGISTDIIVGFPNESDKDFEDTMEVLEKVRFDTLYSFIYSPRPFTEAGAWKERVPLEVSSSRLERLQNRHKEILEEKAKLEVGKTHVVLVENRREMDNQIVGFEGRSDTGKFIEVTCKEKRNPGELVKVEIISHSKGRLMAATKGN | failed
3 | MTQLDTWLANTKPLIPVIVIDDLVHAIPMAKALVAGGVHLLEVTLRTEAGLAAISAIKKAVPEAIVGAGTVCTADDFQKAIDAGAQFIVSPGLTPELIEKAKQVKLDGQWQGVFLPGVATASEVMIAAQAGITQLKCFPASAIGGAKLLKAWSGPFPDIQFCPTGGISKDNYKEYLGLPNVICAGGSWLTESKLLIEGDWNEVTRRASEIVKLSDI | not failed
4 | MTLTDISLAQAFISIPQDVIALDLSNNLLGSKSCVDLLVNIADCIPAGVTSLDLSSNGLRLTQVSLVTPKHVTSLNLCFNPLHEISIDGLEWLKDSLAHIQIIYLSYDMVNNMSREQRQAFRAVIPNIQTIILVDKNGKEIGPSHTAKIANLISELGGGNPEVPSLEHHHHHH | failed
5 | MDFDLWWLLAIPLVFGLGWVAARLDARQLLTEQASLPRSYFKGLNFLLNEQPDKAIDAFIEVARLDPETTELHFALGSLFRRRGETERAIRVHQNLVNRPDLPANERDHALYELGQDFLRAGLLDRAEESLRMLMEGVFAEPAKRVLLELYEVEKEWRKAIDAARELQTLQGQDYSVQIAQFCCELAQESLQRKDVSAAVEWLERALQENPKNVRATIQLGDVALGKGDTEGAIKRWRSIEQQNPAFLPLVAERLMKAYAQLGRAAEGLAWLRSKMDARLGPELLDVVYRYELDVHGIDDAVALMREQIRRQPSLMALTRLVEAEATRASEAVSHEAAAVAAPISDSALADPVEAGSNADIQRAQDLGAIRDLLQSRTRNLARYTCQECGFRARLFYWQCPGCNRWETYAPRRTEALGGSGGASM | failed
6 | MTTNPYTGEREAGKSAIGAGLGSLVGAGIGALSSSKKDRGKGALIGAAAGAALGGGVGYYMDVQEANVRDKMRGTGVSVTRSGDNIILNMPNNVTFDSSSATLKPAGANTLTGVAMVLKEYPKTAVNVIGYTDSTGGHDLNMRLSQQRADSVASALITQGVDASRIRTQGLGPANPIASNSTAEGKAQNRRVEITLSPLLEHHHHHH | not failed
7 | MVLSKTASKSDDSIHSTFASRYVRNSISRFEIPKNSIPKEAAYQIINDELKFDGNPRLNLASFVTTWMEPECDKLMMESINKNNVEMDQYPVTTDLQNRCVNMIARLFNAPLGDGEAAIGVGTVGSSEAVMLAGLAFKRQWQNKRKALGLPYDRPNIVTGANIQVCLEKFARYFEVELKEVKLREGYYVMDPDKAVEMVDENTICVVAILGSTLTGEFEDVKLLNDLLVEKNKKTGWDTPIHVDAASGGFIAPFLYPDLEWDFRLPLVKSINVSGHKYGLVYAGIGWVVWRTKTDLPDELIFHINYLGADQPTFTLNFSKGSSQVIAQYYQLIRLGFEGYRNVMDNCRENMMVLRQGLEKTGRFNIVSKENGVPLVAFSLKDSSRHNEFEVAEMLRRFGWIVPAYTMPADAQHVTVLRVVIREDFSRTLAERLVADFEKVLHELDTLPARVHAKMASGKVNGVKKTPEETQREVTAYWKKFVDTKTDKNGVPLVASITNQ | failed
8 | QAAPSQVVVIRQERAGQTSVSLLWQEPEQPNGIILEYEIKYYEKDKEMQSYSTLKAVTTRATVSGLKPGTRYVFQVRARTSAGCGRFSQAMEVETGKP | not failed
9 | MRGSHHHHHHTDPALRAATLLQLHFAFNGPFGDAMAEQLKPLAESINQEPGFLWKVWTESEKNHEAGGIYLFTDEKSALAYLEKHTARLKNLGVEEVVAKVFDVNEPLSQINQAKLAGLCGR | not failed
10 | MSFLCVRTVSRFRSLSRALAPGFLLLHGNAVPKTAVFFRQQSSNTRLFSSYTAPSGVEENNSKSALKNKLPPGKEVSSKDAKEKITTSAIDLALNSVVKVFTVSSKPRLFQPWQITMQSESTGSGFVISGKKILTNAHVVANQTSVKVRKHGSTTKYKAKVQAVGHECDLAILEIDNDKFWEGMNPLELGDIPSMQDTVYVVGYPKGGDTISVSKGVVSRVGPIKYSHSGTELLAIQIDAAINNGNSGGPVIMGNKVAGVAFESLCYSDSIGYIIPTPVIRHFLNAIEESGEDVSFGSINLTYQKMDNDQLRKDFKMSDKMTGILINKINPLSDVHKVLKKDDIILAIDGVPIGNDSSVHFRKKERITFKHLVSMKKPCETALLKVLREGKEYEFNSSLKSVPPLVPKRQYDKSASYYIFGGLVFLPLTKPYIDSSCVSESALGKMPKKAGEQVVIISQILEDDINTGYSIFEDFQVKKVNGVQVHNLKHLYKLVEECCTETVRMDLEKDKVITLDYKSAKKVTSKILKSLKIPSAVSEDLQPKQQNKRSKVPPKSKEH | failed
11 | MSYKVEAVPDSYAALGEGPHWDVDRQSLYYVDLESAGINRYDFKQNKVYRAKIEGEIFASFILPVENKPQEFAVGCGLRTVIVQWDGVSAVAKVTRTLFEVQPDLKENRLNDAKTDPNGRFYGGTMADSGDIFTQWKGELYSWQAGGQPNAIRSKVGISNGLAWDVKAKKFYFIDTNNHEVLAYDYNQSTGAVSNPKVIFDLRKIRPEGPLFPDGMTVDTDGNIYVATFNGGTVFKVNPSTGKILLEIKIPTTQITSVAFGGPNLDILYVTTANKFDQPKPAGTTFQVTGLNAKGYAGVNLKI | failed
12 | MQRFVLRDWHYRGLSMSLMAQTDKPNIVIIMTDQQRADLCGREGFPLAVTPYVDQLAQENVWFNKAYTVAPASSPARCSMFTGRFPSATHVRTNHNIPDIFFEQDLVGVLKENGYKTALVGKNHAYLKPADLDFWSEYGHWGKNKKTTPEEKETARFLNQKARGQWLEPSPIPVEEQHPAKIVNETLSWIESQKENPFFVWVSFPEPHNPYQVCEPYYSMFSPDKLPVLKTSRKDLEKKGEKYRILAELEDASCPNLEQDLPRIRANYIGMIRLIDDQIKRLIESLKASGQFENTIFVVLSDHGDYWGEYGLIRKGAGLSESLARIPMVWAGYHVKNQSAPMDSHVSIADIFPTLCSAIGAKIPAGVQGRSLWPMLTGKEYPKEEFSSIVVQQGFGGAHVGLDSSLTFEQEGALTPGKIAYFDELNTWTQSGTSRMVRKDDWKLVMDNYGNGELYNLKKDPSEVDNLFGKKKYTAVQTELLTKLVAWELRLQDPLPLPRKRYHFKQDPYNYLQPEQLEHHHHHH | failed
13 | AKGLRTVKTCVGSDWCRFGTQDSTGLGIRIERFMWGSWTPAKLKMAVSGCPRNCAEATCKDIGVICVDSGFEIHFAGAAGLDIKGTEVLGLVRTEDEALEYIVALTQMYREQARYLERIYKWAKRIGLEEIRRQIMGDAEK | failed
14 | MSENLAITIATIVVKLFAIIDPFSVLPFLLAIYEEANRDSQEKVSWNYMINKITIAILILLTLFSLIGRPLLDFLGLSAQALQIAGGVLLVYLGIDTMGGFQQLRFIRSLREAIVTPIATPLLVGPGTMTALISLSVDYNPLELVISSGIVTLLVYLSLLSGPYLVKILGQTGTVAAGRFTAIIIAAFGVQLILSGISQLNFK | failed
15 | SVDKNRTLHELSSKNFSRTPNGLIFTNDLKTVYSIFLICLDLKEKKHSSDTKSFLLTAFTKHFHFTFTYQEAIKAMGQLELKVDMNTTCINVSYNIKPSLARHLLTLFMSSKLLHTPQDRTRGEPKEKVLFQPTPKGVAVLQKYVRDIGLKTMPDILLSSFNSMKLFTFERSSVTDSIIHSDYLIHILFIKMMGAKPNVWSPTNADDPLPCLSSLLEYTNNDDTFTFEKSKPEQGWQAQIGNIDINDLERVSPLAHRFFTNPDSESHTQYYVSNAGIRLFENKTFGTSKKIVIKYTFTTKAIWQWIMDCTDIMHVKEAVSLAALFLKTGLIVPVLLQPSRTDKKKFQISRSSFFTLSKRGWDLVSWTGCKSNNIRAPNGSTIDLDFTLRGHMTVRDEKKTLDDSEGFSQDMLISSSNLNKLDYVLTDPGMRYLFRRHLEKELCVENLDVFIEIKRFLKKMTILKKLIDSKHCDKKSNTSTSKNNIVKTIDSALMKQANECLEMAYHIYSSYIMIGSPYQLNIHHNLRQNISDIMLHPHSPLSEHFPTNLYDPSPASAESAASSISSTEADTLGEPPEVSLKPSKNLSNENCSFKKQGFKHQLKEYKPAPLTLAETHSPNASVENSHTIVRYGMDNTQNDTKSVESFPATLKVLRKLYPLFEIVSNEMYRLMNNDSFQKFTQSDVYKDASALIEIQEKC | failed
16 | MNILLAMIPAFFWGTTYAVTQFTLPDWPPVLLGALRALPAGLLLLAIKPSLPKKHEWKVLLVLGTINIAFFFGLIFVMALTLPSAISGVGMISVPVFAMLFGWAVYKRQPSAIQGISGAVLIALAWFLFDPSSISLNPIGLGAMLAAIMCIVIGSSVTKSLGTKMHWWTVLTWQLILGGVLLSIAAAVLATINPQPYVHAVQNIDMTNTLGLLWVIVLNTALGYGMYVWLLQRMSVVDFTFGGIANPIAGIVSGLLLLGENFTPLQYSLMVGMIVMSLLPQILTSLRARKEAITV | failed
17 | MTRSSNIPADATPNPHATAEQVAAARHDSKLAQVLYHDWEAENYDEKWSISYDQRCVDYARGRFDAIVPDEVIAQLPYDRALELGCGTGFFLLNLIQAGVARRGSVTDLSPGMVKVATRNGQALGLDIDGRVADAEGIPYDDDAFDLVVGHAVLHHIPDVELSLREVVRVLKPGGRFVFAGEPTTVGDGYARTLSTLTWRVVTNATKLPGLRGWRRPQGELDESSRAAALEALVDLHTFTPQDLQRIAHNAGAVEVQTATEEFTAAMLGWPLRTFECTVPPGRLGWGWARFAFTSWKTLGWVDANVWRHVVPKGWFYNVMITGVKPS | failed
18 | MGIEMSLKDIINSNRPSESRQLACALTFCGGFIDAYTYIQRGHTLSAGQTGNVIFFSSALADHNIPGMINRASTFIAFSLGLLLVGLFHKYVKSHYWRVFCLFPILVICIVVGFLPKSVPNYYIVPAIAFGLAVQNASFSKIEGMGYNNVFTTGNLKKSVVAWSAFFFGEDKSKYTAAVNYMMLVISFGLGAIVSALLQKIWVLKTIWIAVIFLAIINCIYIIAIRKHKKLDLSGKNDA | failed
19 | MKWKKSLAGLSSYKPGKREEEVMAELGLTKITKLSSNENPLGTSKKVAAIQANSSVETEIYPDGWASSLRKEVADFYQLEEEELIFTAGVDELIELLTRVLLDTTTNTVMATPTFVQYRQNALIEGAEVREIPLLQDGEHDLEGMLNAIDEKTTIVWICNPNNPTGNYIELADIQAFLDRVPSDVLVVLDEAYIEYVTPQPEKHEKLVRTYKNLIITRTFSKIYGLASARVGYGIADKEIIRQLNIVRPPFNTTSIGQKLAIEAIKDQAFIGECRTSNANGIKQYEAFAKRFEKVKLYPANGNFVLIDLGIEAGTIFSYLEKNGYITRSGAALGFPTAVRITIGKEEDNSAVIALLEKLL | not failed
20 | MQLTSQAFSYGRPIPKKYSCQGVGISPPLSFSDVPREAKSLVLIVEDPDVPPSVREDGLWIHWIVYNLSPVVSNLAEGAQIFAVQGLNTAGEIGYCPPCPPDAKHRYYFYAYALDVVLSDEEGVTKEQLLEAMDGHIIATAELMGTYEKD | not failed
21 | SPSKVQELSVYEINELDRHSPKILKNAFSLMFGLGDLVPFTNKLYTGDLKKRVGITAGLCVVIEHVPEKKGERFEATYSFYFGDYGHLSVQGPYLTYEDSFLAITGGAGIFEGAYGQVKLQQLVYPTKLFYTFYLKGLANDLPLELTGTPVPPSKDIEPAPEAKALEPSGVISNYTN | failed
